The values below come from patent US20200270347A1 (Hoffmann-La Roche, published 2020).

Changes are numbered by the printed parent chain. Numbers in names are those of the source.

A word on the Kd: it is the concentration at which binding is half-saturated. A lower Kd goes with higher affinity. A word on the EC50: it is the concentration giving half of the maximal effect. A low value points to a more potent agent. By EC50 (read off the curve) is commonly meant the concentration giving half of the maximal effect. A lower EC50 (read off the curve) goes with an effect from little substance.

The target of assay [1] is Cynomolgus TYRP1 ECD-Fc(knob)-Avi / Fc(hole) (cynomolgus, UniProt P01857 104-328 = IgG part). The assay is described as follows: SPR, TYRP1 ECD-Fc captured with anti-PGLALA antibody, Fab as analyte, 1:1 Langmuir; cynomolgus TYRP1. On the technique in general: Surface plasmon resonance follows binding to a sensor surface in real time, without labels.
The target in assay [2] is Mouse TYRP1 ECD-Fc(knob)-Avi / Fc(hole) (mouse, UniProt P01857 104-328 = IgG part). The assay can be described thus: SPR, TYRP1 ECD-Fc captured with anti-PGLALA antibody, Fab as analyte, 1:1 Langmuir; mouse TYRP1.
Assay [3] has as its target T1, Human TYRP1 ECD-Fc(knob)-Avi / Fc(hole) (human, UniProt P01857 104-328 = IgG part).
T1 construct: Fc with knob-into-hole and PG LALA modifications, C-terminal Avi-tag; also called monomeric fusion of the human TYRP1 extracellular domain to a human Fc-domain
The assay can be described thus: SPR, TYRP1 ECD-Fc captured with anti-PGLALA antibody, Fab as analyte, 1:1 Langmuir; human TYRP1.

Assay [4] concerns the target T2, EGFRvIII-ECD avi his (human).
T2 construct: Extracellular domain of human EGFRvIII fused to an Avi-tag and a His-tag at the C-terminus; the entry is the whole construct; also called recombinant EGFRvIII; EGFRvIII antigen
The assay can be described thus: SPR, PGLALA IgG captured with anti-PGLALA antibody, EGFRvIII-ECD avi his as analyte, 1:1 Langmuir, 25° C.

The target of assay [5] is T3, EGFRvIII expressed on the cell surface (CHO-EGFRvIII, DK-MG, U87MG-EGFRvIII cells) (human, UniProt P00533 298-1210).
T3 construct: The cell line of each result is named under assay; Species is stated for the U87 transfectant (human EGFRvIII protein) and the entry; also called EGFRvIII positive cells
The assay can be described thus: flow cytometry on CHO-EGFRvIII cells, IgG. (Flow cytometry measures light scatter and fluorescence of single cells or particles in a stream.)

The target in assay [6] is T2, EGFRvIII-ECD avi his. The assay is described as follows: SPR, ECD antigen captured with anti-His, single injection of antibody at 500 nM.
For assay [7], the target named is EGFRwt ECD antigen (His-tagged, captured with anti-His) (human, UniProt P00533 25-645). The assay is described as above.
Assay [8] deals with T3, EGFRvIII expressed on the cell surface …. The assay is described as follows: flow cytometry on U87MG-EGFRvIII cells, IgG PGLALA.
The target of assay [9] is T4, wild-type EGFR on MKN-45 cells (human, UniProt P00533 25-1210).
T4 construct: MKN-45 is the wild-type EGFR line used to exclude crossreactivity; also called EGFRwt
The assay can be described thus: flow cytometry on MKN-45 cells (wild-type EGFR).

The target of assay [10] is T3, EGFRvIII expressed on the cell surface …. The assay can be described thus: flow cytometry on CHO-EGFRvIII cells, TCB.
Assay [11] deals with T5, heterodimer of human CD3 delta and CD3 epsilon ectodomains fused to a human Fc domain with knob-into-hole … (human).
T5 construct: Each entry is the whole fusion chain (ectodomain, stalk, Fc, Avi-tag); also called recombinant CD3; recombinant human CD3
The assay can be described thus: SPR, relative active concentration after stress.

In assay [12] the target is T6, heterodimer of cynomolgus CD3 delta and CD3 epsilon ectodomains fused to a human Fc domain with … (cynomolgus).
T6 construct: Each entry is the whole fusion chain; also called Cynomolgus CD3 epsilon stalk-Fc(knob)-Avi / Cynomolgus CD3 delta stalk-Fc(hole)-Avi
The assay is described as follows: SPR, TCB captured with anti-PGLALA antibody, CD3 antigen as analyte, 1:1 Langmuir; CD3opt; cynomolgus CD3.

The target of assay [13] is T3, EGFRvIII expressed on the cell surface …. The assay is described as follows: flow cytometry on U87MG-EGFRvIII cells, fluorescently labelled anti-human Fc secondary antibody.
The target of assay [14] is T5, heterodimer of human CD3 delta and CD3 …. The assay is described as follows: SPR, TCB captured with anti-PGLALA antibody, CD3 antigen as analyte, 1:1 Langmuir; CD3opt; human CD3.
For assay [15], the target named is T2, EGFRvIII-ECD avi his. The assay can be described thus: SPR, TCB captured with anti-Fc antibody, EGFRvIII-ECD avi his as analyte, 1:1 fit; CD3opt.
Assay [16] has as its target T5, heterodimer of human CD3 delta and CD3 …. The assay can be described thus: SPR, TCB captured with anti-PGLALA antibody, CD3 antigen as analyte, 1:1 Langmuir; CD3orig; human CD3.
The target of assay [17] is T2, EGFRvIII-ECD avi his. The assay is described as follows: SPR, TCB captured with anti-Fc antibody, EGFRvIII-ECD avi his as analyte, 1:1 fit; CD3orig.

B1: TYRP1 Fab fragment (humanized TA99 TYRP1 binder) (Fab, V domains shown)
VH: QVQLVQSGAEVKKPGASVKVSCKASGFNIKDYFLHWVRQAPGQGLEWMGWINPDNGNTVYAQKFQGRVTMTADTSTSTVYMELSSLRSEDTAVYYCTRRDYTYEKAALDYWGQGTLVTVSS
VL: DIQMTQSPSSLSASVGDRVTITCRASGNIYNYLAWYQQKPGKVPKLLIYDAKTLADGVPSRFSGSGSGTDFTLTISSLQPEDVATYYCQHFWSLPFTFGQGTKLEIK
notes: Fab prepared by plasmin digestion of the corresponding antibody; also called TYRP1 Fab fragments
As to B1, the Kd came out at 0.18 nM in assay [1], 0.53 nM in assay [2] and 0.13 nM in assay [3].

B2: EGFRvIII antibody P056.021 IgG1 PGLALA (antibody, V domains shown)
VH: EVQLVQSGAEVKKPGESLKISCKGSGYSFDSYWIAWVRQMPGKGLEWMGVIHPYDSDTRYSPSFQGQVTISADKSISTAYLQWSSLKASDTAMYYCARVSRSSYAFDYWGQGTLVTVSS
VL: not shown
notes: Human IgG1 with P329G L234A L235A; also called P056.021 (parental)
B2 registered a Kd in the assay with EGFRvIII-ECD avi his [4] of 35 nM. The same molecule displayed an EC50 in [5] of 16.5 nM. Further, the response units was greater than 50 RU with EGFRvIII-ECD avi his [6] and less than 5 RU in [7]. Moreover, in [8], the “EC50 (read off the curve)” value is roughly 4 nM. The binding result in [9] was “no binding (tested: about 140 nM)”.

B3: EGFRvIII TCB P056.021 (CD3orig) (bispecific antibody, V domains shown)
VH 1: B2 VH
VL 1: not shown
VH 2: not shown
VL 2: QAVVTQEPSLTVSPGGTVTLTCGSSTGAVTTSNYANWVQEKPGQAFRGLIGGTNKRAPGTPARFSGSLLGGKAALTLSGAQPEDEAEYYCALWYSNLWVFGGGTKLTVL
notes: also called parental EGFRvIII TCB P056.021; P056.021 EGFRvIII TCB with CD3orig
On to B3, for which the binding result in assay [9] is “no binding (tested: about 140 nM)”. The response in [10] was half-maximal at 13 nM (EC50).

B4: EGFRvIII TCB CD3opt (EGFRvIII binder P063.056) (bispecific antibody, human IgG1, kappa, L234A L235A)
heavy 1: not shown
heavy 2: EVQLVQSGAEVKKPGESLKISCKGSGYSFDSYWIAWVRQMPGKGLEWMGVIHPYDSDTRYSPSFQGQVTISADKSISTAYLQWSSLKASDTAMYYCARVSRSSYAFDYWGQGTLVTVSSASTKGPSVFPLAPSSKSTSGGTAALGCLVEDYFPEPVTVSWNSGALTSGVHTFPAVLQSSGLYSLSSVVTVPSSSLGTQTYICNVNHKPSNTKVDEKVEPKSCDKTHTCPPCPAPEAAGGPSVFLFPPKPKDTLMISRTPEVTCVVVDVSHEDPEVKFNWYVDGVEVHNAKTKPREEQYNSTYRVVSVLTVLHQDWLNGKEYKCKVSNKALGAPIEKTISKAKGQPREPQVCTLPPSRDELTKNQVSLSCAVKGFYPSDIAVEWESNGQPENNYKTTPPVLDSDGSFFLVSKLTVDKSRWQQGNVFSCSVMHEALHNHYTQKSLSLSP
light 1: not shown
light 2: EVQLLESGGGLVQPGGSLRLSCAASGFQFSSYAMNWVRQAPGKGLEWVSRIRSKYNNYATYYADSVKGRFTISRDDSKNTLYLQMNSLRAEDTAVYYCVRHTTFPSSYVSYYGYWGQGTLVTVSSASVAAPSVFIFPPSDEQLKSGTASVVCLLNNFYPREAKVQWKVDNALQSGNSQESVTEQDSKDSTYSLSSTLTLSKADYEKHKVYACEVTHQGLSSPVTKSFNRGEC
notes: 2+1 IgG CrossFab, inverted, with charge modifications; also called EGFRvIII TCB P063.056 with CD3opt; 2+1 format
For the molecule B4, in assay [11], the “binding activity to CD3 after 2 weeks at pH 7.4, 37° C., relative to 2 weeks at pH 6, -80° C.” value was greater than 90%. For the same molecule, the Kd in [12] was found to be 20 nM; in [14], 30 nM; with EGFRvIII-ECD avi his [15], 6 nM. In assay [13], the binding result is listed as “binds”.

B5: EGFRvIII TCB CD3orig (EGFRvIII binder P063.056) (bispecific antibody, human IgG1, kappa, L234A L235A)
heavy 1: not shown
heavy 2: B4 heavy 2
light 1: not shown
light 2: B4 light 2 with Q28T, S31T, T102G, T103N, P105G, S106N, Y111W, Y112F, G113A
notes: 2+1 IgG CrossFab, inverted, with charge modifications; also called EGFRvIII TCB P063.056 with CD3orig
With B5, the Kd in assay [16] is 40 nM; with EGFRvIII-ECD avi his [17] it was 6 nM. Also, the “EC50 (read off the curve)” value in assay [13] is roughly 9 nM.
